The numbers were not newly measured in paper PMC7134607, which cites them from elsewhere.

The series has as its target SARS main protease (SARS coronavirus) (UniProt P0C6X7).

As usually defined, the Kd is the equilibrium constant for the complex coming apart. Regarding “SARS main protease (from UniProt P0C6X7)”, the Kd is 100 µM.
